Test results reported in patent US10472605B2, “Serum-free medium” (National University of Ireland, Galway, priority 2014, dated 2019).

Legend:
MSC [1] = assay: Growth/proliferation of MSC isolated in 10% FBS and re-attached under serum-free conditions; format: cell-based; conditions: 5 ng/ml; over 3 passages, days 5, 10 and 15; fibronectin-coated
Description: Tissue culture flasks were pre-coated with FN (black), HA (blue), VN (red) or LN (green) and cells were allowed to adhere in serum-free conditions. Cell numbers were obtained after 5 days. Controls include serum-free plating without the presence of an ECM attachment factor and 10% FBS (grey). Results are representative of 3 biological replicates with n=2;
Cells were then cultured in the presence of growth factors and passaged every 5 days. Controls include serum free plating without growth factors and 10% FBS. Results are representative of 3 biological replicates with n=2;
Cells were then cultured in serum-free media containing FGF2 (5 ng/ml) in the presence of PGE2, cholesterol or lipoprotein for 5 days. Controls include serum free plating without growth factors 10% FBS (A). Cells were then cultured in the presence of lipoprotein and passaged every 5 days for 3 passages, controls include serum free plating without lipoprotein (B). Results are representative of 3 biological replicates with n=2;
(§1) Proliferation of the MSC attached in the presence of basic fibroblast growth factor (bFGF2, FGF2) was also assessed after 6 days.
Serum-free basal medium formulation was selected based on the literature describing low-serum cell culture of dental pulp stem cells (Tarle et al., 2010). […]

MSC [2] = assay: Attachment of MSC isolated in 10% FBS and re-attached under serum-free conditions; format: cell-based; conditions: after 18 hours in a serum-free environment; vitronectin 0.5 μg/ml pre-coating
Text: Tissue culture flasks were pre-coated with fibronectin (FN; black), hylauronic acid (HA; blue), vitronectin (VN; red) or laminin (LN; green) and cells were allowed to adhere in serum-free conditions. Controls include serum-free plating without the presence of an extra-cellular matrix (ECM) attachment factor and 10% FBS (grey). Results are representative of 3 biological replicates with n=2;
MSC were attached on tissue culture flasks in the presence of EGF (red) or on tissue culture plastic precoated with FN (purple) or in the presence of EGF on fibronectin coated plastic (green) and passaged every 3 days. Controls include serum free plating without the presence of an ECM attachment factor (blue) and 10% FBS (black). Results are representative of 3 biological replicates with n=2;
as §1

Row | Molecule | MSC proliferation in serum free medium (MSC [1]) | MSC attachment (MSC [2])
1 | FGF4: fibroblast growth factor 4 (protein, UniProt P08620 31-206, looked up) Fibroblast growth factor 4: APTAPNGTLEAELERRWESLVALSLARLPVAAQPKEAAVQSGAGDYLLGIKRLRRLYCNVGIGFHLQALPDGRIGGAHADTRDSLLELSPVERGVVSIFGVASRFFVAMSSKGKLYGSPFFTDECTFKEILLPNNYNAYESYKYPGMFIALSKNGKTKKGNRVSPTMKVTHFLPRL | increased MSC proliferation | 
2 | vitronectin: extra-cellular matrix attachment factor used to pre-coat flasks (protein, UniProt P04004 20-478, looked up) Vitronectin: DQESCKGRCTEGFNVDKKCQCDELCSYYQSCCTDYTAECKPQVTRGDVFTMPEDEYTVYDDGEEKNNATVHEQVGGPSLTSDLQAQSKGNPEQTPVLKPEEEAPAPEVGASKPEGIDSRPETLHPGRPQPPAEEELCSGKPFDAFTDLKNGSLFAFRGQYCYELDEKAVRPGYPKLIRDVWGIEGPIDAAFTRINCQGKTYLFKGSQYWRFEDGVLDPDYPRNISDGFDGIPDNVDAALALPAHSYSGRERVYFFKGKQYWEYQFQHQPSQEECEGSSLSAVFEHFAMMQRDSWEDIFELLFWGRTSAGTRQPQFISRDWHGVPGQVDAAMAGRIYISGMAPRPSLAKKQRFRHRNRKGYRSQRGHSRGRNQNSRRPSRATWLSLFSSEESNLGANNYDDYRMDWLVPATCEPIQSVFFFSGDKYYRVNLRTRRVDTVDPPYPRSIAQYWLGCPAPGHL |  | supported MSC attachment optimally
